Assay results from the supplement of paper PMC10724198.
± gives the standard deviation of the averaged measurements.

Columns and labels:
Saccharomyces cerevisiae [1] = assay: protein stability index of tFT-peptide fusion (C-terminal peptide) (PSI (0-1 scale)); higher = more stable (slower turnover)
Procedure: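 MPS profiling in S. cerevisiae of the tFT-X12 degron library: putative degron peptides plus stable controls, 12 aa, fused to the C-terminus of a sfGFP-mCherry timer. Cells are FACS-sorted into 8 mCherry/sfGFP bins and deep-sequenced. PSI runs from 0 (unstable) to 1 (stable). Backgrounds are wild type, das1Δ and doa10Δ at 30 °C, and wild type, das1Δ, cdc34-1 and cdc53-1 at 37 °C; 2-3 technical replicates each.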

Saccharomyces cerevisiae [2] = assay: as above; details: genetic background: wild type; temperature: 30 C
[3] = genetic background: cdc34-1, temperature: 37 C
[4] = genetic background: cdc53-1, temperature: 37 C
[5] = genetic background: das1 deletion, temperature: 30 C
[6] = genetic background: das1 deletion, temperature: 37 C
[7] = genetic background: doa10 deletion, temperature: 30 C
[8] = genetic background: wild type, temperature: 30 C
[9] = genetic background: wild type, temperature: 37 C
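Further: PSI is a weighted mean of sequencing reads over stability bins, variants kept only with over 10 reads, mCherry proximal and sfGFP distal, peptide attached via GGGS linker.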

Row | Sequence | protein stability index (Saccharomyces cerevisiae [1]; [3]) | protein stability index (Saccharomyces cerevisiae [1]; [4]) | protein stability index (Saccharomyces cerevisiae [1]; [5]) | protein stability index (Saccharomyces cerevisiae [1]; [6]) | protein stability index (Saccharomyces cerevisiae [1]; [7]) | protein stability index (Saccharomyces cerevisiae [1]; [8]) | protein stability index (Saccharomyces cerevisiae [1]; [9]) | protein stability index (Saccharomyces cerevisiae [2])
1 | LPLVFYCFLLHS | 0.49 ± 0.026 | 0.523 ± 0.0057 | 0.394 ± 0.029 | 0.518 ± 0.0063 | 0.386 ± 0.01 | 0.376 ± 0.035 | 0.509 ± 0.015 | 0.4422 ± 0.002
2 | LPVPVLGFPPLA | 0.703 ± 0.022 | 0.778 ± 0.018 | 0.664 ± 0.018 | 0.732 ± 0.032 | 0.659 ± 0.027 | 0.655 ± 0.015 | 0.71 ± 0.011 | 0.7186 ± 0.0014
3 | LRCCGALPLYAY | 0.251 ± 0.038 | 0.248 ± 0.03 | 0.238 ± 0.038 | 0.3968 ± 0.0033 | 0.189 ± 0.014 | 0.228 ± 0.028 | 0.341 ± 0.022 | 0.348 ± 0.018
4 | LRFFYFLHFCIL | 0.36 ± 0.033 | 0.366 ± 0.024 | 0.43 ± 0.018 | 0.504 ± 0.0076 | 0.256 ± 0.0083 | 0.223 ± 0.0052 | 0.286 ± 0.021 | 0.277 ± 0.03
5 | LRRVHRIKLQVC | 0.254 ± 0.06 | 0.431 ± 0.035 | 0.288 ± 0.029 | 0.477 ± 0.014 | 0.0938 ± 0.0029 | 0.0996 ± 0.015 | 0.102 ± 0.0019 | 0.178 ± 0.094
6 | LRVAWVCISIVA | 0.0375 ± 0.005 | 0.0899 ± 0.006 | 0.0876 ± 0.023 | 0.164 ± 0.0029 | 0.0363 ± 0.011 | 0.0495 ± 0.015 | 0.0664 ± 0.0091 | 0.117 ± 0.027
7 | LRVPCPPCCVFV | 0.568 ± 0.049 | 0.69936 ± 0.0003 | 0.616 ± 0.016 | 0.727 ± 0.0099 | 0.33 ± 0.015 | 0.334 ± 0.009 | 0.4302 ± 0.0026 | 0.398 ± 0.027
8 | LSQPGWFKCCLS | 0.653 ± 0.014 | 0.737 ± 0.05 | 0.662 ± 0.029 | 0.7677 ± 0.00079 | 0.308 ± 0.023 | 0.326 ± 0.023 | 0.463 ± 0.029 | 0.42 ± 0.013
9 | LSRFRYFVLTSL | 0.531 ± 0.026 | 0.6913 ± 0.0028 | 0.608 ± 0.018 | 0.698 ± 0.033 | 0.146 ± 0.015 | 0.171 ± 0.019 | 0.263 ± 0.037 | 0.261 ± 0.041
10 | LSVSEILAVKCG | 0.559 ± 0.034 | 0.584 ± 0.0073 | 0.429 ± 0.034 | 0.592 ± 0.026 | 0.363 ± 0.0039 | 0.411 ± 0.026 | 0.5632 ± 0.0052 | 0.489 ± 0.012
11 | LTACRYVCFLLF | 0.575 ± 0.019 | 0.644 ± 0.018 | 0.561 ± 0.017 | 0.676 ± 0.037 | 0.239 ± 0.0088 | 0.261 ± 0.032 | 0.424 ± 0.012 | 0.261 ± 0.041
12 | LTFRFGVNPYVF | 0.631 ± 0.034 | 0.748 ± 0.013 | 0.634 ± 0.019 | 0.752 ± 0.024 | 0.132 ± 0.0056 | 0.14 ± 0.023 | 0.283 ± 0.015 | 0.323 ± 0.011
13 | LVLELYRFARFG | 0.636 ± 0.03 | 0.7337 ± 0.0046 | 0.643 ± 0.0069 | 0.742 ± 0.015 | 0.2704 ± 0.00045 | 0.276 ± 0.043 | 0.532 ± 0.038 | 0.3197 ± 0.0012
14 | LVLFVVGGWVSL | 0.35 ± 0.023 | 0.474 ± 0.082 | 0.316 ± 0.023 | 0.551 ± 0.014 | 0.279 ± 0.0085 | 0.311 ± 0.029 | 0.54 ± 0.076 | 0.445 ± 0.043
15 | LVSLCYAYPRYC | 0.646 ± 0.016 | 0.685 ± 0.008 | 0.532 ± 0.016 | 0.7025 ± 0.0052 | 0.2577 ± 0.00032 | 0.279 ± 0.031 | 0.5826 ± 0.0029 | 0.387 ± 0.025
16 | LVVAVLKIIMSS | 0.13 ± 0.023 | 0.201 ± 0.00098 | 0.2 ± 0.033 | 0.349 ± 0.013 | 0.0697 ± 0.012 | 0.0742 ± 0.023 | 0.0596 ± 0.0031 | 0.124 ± 0.027
17 | LWFLDYVFICFL | 0.335 ± 0.017 | 0.347 ± 0.025 | 0.33 ± 0.034 | 0.452 ± 0.012 | 0.3673 ± 0.0034 | 0.299 ± 0.018 | 0.399 ± 0.011 | 0.382 ± 0.022
18 | LWFRCVRMQACR | 0.47 ± 0.031 | 0.51569 ± 0.00022 | 0.411 ± 0.019 | 0.5101 ± 0.0028 | 0.42 ± 0.025 | 0.41 ± 0.015 | 0.492 ± 0.0094 | 0.507 ± 0.032
19 | LWLFIVCWVGCV | 0.234 ± 0.017 | 0.301 ± 0.044 | 0.201 ± 0.019 | 0.339 ± 0.014 | 0.1847 ± 0.00077 | 0.177 ± 0.025 | 0.31 ± 0.0052 | 0.247 ± 0.033
20 | LWLVSLLVLWLT | 0.332 ± 0.035 | 0.375 ± 0.033 | 0.291 ± 0.033 | 0.439 ± 0.011 | 0.239 ± 0.0059 | 0.256 ± 0.02 | 0.383 ± 0.013 | 0.316 ± 0.018

Row | Sequence | protein stability index (Saccharomyces cerevisiae [1]; [3]) | protein stability index (Saccharomyces cerevisiae [1]; [4]) | protein stability index (Saccharomyces cerevisiae [1]; [5]) | protein stability index (Saccharomyces cerevisiae [1]; [6]) | protein stability index (Saccharomyces cerevisiae [1]; [7]) | protein stability index (Saccharomyces cerevisiae [1]; [8]) | protein stability index (Saccharomyces cerevisiae [1]; [9]) | protein stability index (Saccharomyces cerevisiae [2])
21 | LWNFYELVVYAM | 0.046 ± 0.016 | 0.0695 ± 0.046 | 0.159 ± 0.035 | 0.153 ± 0.04 | 0.103 ± 0.021 | 0.121 ± 0.019 | 0.114 ± 0.0054 | 0.212 ± 0.018
22 | LYLFKVLFFRVF | 0.122 ± 0.047 | 0.173 ± 0.026 | 0.286 ± 0.045 | 0.458 ± 0.06 | 0.0857 ± 0.0067 | 0.0584 ± 0.016 | 0.102 ± 0.015 | 0.104 ± 0.048
23 | LYYSVIFLFLSW | 0.255 ± 0.0028 | 0.306 ± 0.023 | 0.232 ± 0.033 | 0.371 ± 0.016 | 0.272 ± 0.036 | 0.208 ± 0.026 | 0.334 ± 0.033 | 0.339 ± 0.047
24 | MACLRLTVYVMG | 0.0763 ± 0.013 | 0.0769 ± 0.045 | 0.135 ± 0.031 | 0.2187 ± 0.0016 | 0.088 ± 0.034 | 0.13 ± 0.026 | 0.202 ± 0.0036 | 0.283 ± 0.017
25 | MALAVRVVACGA | 0.125 ± 0.032 | 0.1647 ± 0.0014 | 0.196 ± 0.026 | 0.281 ± 0.0065 | 0.157 ± 0.012 | 0.19 ± 0.024 | 0.236 ± 0.0084 | 0.261 ± 0.0094
26 | MFLHLGLFIMSH | 0.348 ± 0.011 | 0.4065 ± 0.0032 | 0.303 ± 0.025 | 0.457 ± 0.0099 | 0.2787 ± 0.0023 | 0.306 ± 0.014 | 0.435 ± 0.006 | 0.382 ± 0.037
27 | MFWKFVFRGFWF | 0.694 ± 0.064 | 0.739 ± 0.008 | 0.641 ± 0.034 | 0.7791 ± 0.0044 | 0.221 ± 0.0052 | 0.259 ± 0.019 | 0.4748 ± 0.0044 | 0.338 ± 0.018
28 | MMEMMTKSNRIP | 0.683 ± 0.029 | 0.737 ± 0.015 | 0.63 ± 0.016 | 0.709 ± 0.04 | 0.4 ± 0.02 | 0.446 ± 0.074 | 0.639 ± 0.016 | 0.517 ± 0.025
29 | MQFVALFLVGLL | 0.465 ± 0.041 | 0.5087 ± 0.001 | 0.346 ± 0.049 | 0.5245 ± 0.0022 | 0.308 ± 0.0095 | 0.354 ± 0.023 | 0.509 ± 0.0056 | 0.465 ± 0.0047
30 | MRGPAWVCVLYS | 0.637 ± 0.026 | 0.711 ± 0.012 | 0.59 ± 0.044 | 0.69291 ± 0.00012 | 0.284 ± 0.0086 | 0.339 ± 0.023 | 0.5348 ± 0.0048 | 0.485 ± 0.028
31 | MSVLAFVCCLSG | 0.3532 ± 0.0026 | 0.311 ± 0.0052 | 0.289 ± 0.033 | 0.393 ± 0.022 | 0.2478 ± 0.0014 | 0.268 ± 0.027 | 0.3585 ± 0.0029 | 0.336 ± 0.0033
32 | NDVGGYFYVCSE | 0.682 ± 0.013 | 0.749 ± 0.013 | 0.641 ± 0.012 | 0.7142 ± 0.0056 | 0.63 ± 0.011 | 0.648 ± 0.024 | 0.735 ± 0.023 | 0.578 ± 0.12
33 | NHKTIRIQNKSI | 0.67783 ± 7.8e-06 | 0.775 ± 0.045 | 0.64 ± 0.034 | 0.699 ± 0.0092 | 0.146 ± 0.0041 | 0.143 ± 0.051 | 0.424 ± 0.044 | 0.302 ± 0.031
34 | NKYSMQNVLKSF | 0.7 ± 0.034 | 0.711 ± 0.02 | 0.632 ± 0.025 | 0.752 ± 0.017 | 0.249 ± 0.06 | 0.323 ± 0.025 | 0.552 ± 0.049 | 0.418 ± 0.023
35 | NLDRYYKKIKLI | 0.338 ± 0.025 | 0.69 ± 0.013 | 0.689 ± 0.063 | 0.733 ± 0.019 | 0.052 ± 0.03 | 0.0742 ± 0.029 | 0.0913 ± 0.021 | 0.15 ± 0.025
36 | NLSYFFFSVLFF | 0.552 ± 0.069 | 0.562 ± 0.018 | 0.506 ± 0.033 | 0.693 ± 0.067 | 0.62 ± 0.022 | 0.545 ± 0.068 | 0.612 ± 0.038 | 0.499 ± 0.032
37 | NSCHFYSRFYLA | 0.651 ± 0.012 | 0.7421 ± 0.00091 | 0.657 ± 0.022 | 0.70341 ± 0.00042 | 0.243 ± 0.0054 | 0.3 ± 0.019 | 0.5196 ± 0.00096 | 0.3452 ± 0.0025
38 | NVALHPGVPRKC | 0.656 ± 0.038 | 0.715 ± 0.018 | 0.677 ± 0.026 | 0.75 ± 0.031 | 0.664 ± 0.018 | 0.649 ± 0.019 | 0.702 ± 0.019 | 0.341 ± 0.036
39 | NYCLYFKLSRLS | 0.62 ± 0.029 | 0.691 ± 0.016 | 0.603 ± 0.015 | 0.655 ± 0.021 | 0.221 ± 0.02 | 0.25 ± 0.017 | 0.429 ± 0.011 | 0.3897 ± 0.00059
